From the RNAGym collection of RNA variant scans (doi:10.1073/pnas.2313332121)
This sample holds only a part of the variants without activity.

B1: TPR 5TU (parent)
chain: GGAUCUUCUCGAUCUAACAAAAAAGACAAAUCUGCCACAAAGCUUGAGAGCAUCUUCGGAUGCAGAGGCGGCAGCCUUCGGUGGCGCGAUAGCGCCAACGUUCUCAACUAUGACACGCAAAACGCGUGCUCCGUUGAAUGGAGUUUAUCAUG

Variants of: B1
Experiment: polymerase ribozyme fitness, log enrichment relative to wild type (log ratio); higher = more active; in vitro selection for triplet polymerase activity
Summary of the method: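 In triplicate, a single round of in vitro selection was run on each mutant library, PCR-built and transcribed, covering one subunit of a heterodimeric triplet polymerase ribozyme. Frozen incubation at −7 °C followed annealing with a biotinylated primer, partner subunit and triplets, and extended constructs were then gel-excised, streptavidin-captured and taken through RT-PCR. Fitness is the logarithm of genotype enrichment over wild-type enrichment, from inverse-variance-weighted replicate averages of Illumina-sequenced inputs and outputs. […] only genotypes with ≥10 input reads and ≥1 read per output were kept.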

| Variant | polymerase ribozyme fitness (log ratio) |
| --- | --- |
| GGAUCUUCUCGAUCUAACAAAAAAGACAAAUCUGCCACAAAGCUUGAGACCAUCUUCGGAUGCAGAGGCGGCAGCCUUCGGUGGCACGAUAGCGCCAACGUUGUCAACUAUGACACGCAAAACUUCUGCUCCGUUGAAUGGAGUUUAUCAUG [G50C G86A C103G G124U C125U G126C] | ≤ -4.2 |
| GGAUCUUCUCGAUCUAACAAAAAAGACAAAUCUGCCACAAAGCUUGAGACCAUCUUCGGAUGCAGAGGCGGCAGCCUUCGGUGGCGCGAUAGCGCCAACGUUCUCAACUAUGACACGCAAAACGCGUGCUCCGAUGAAUGGAGUUUAUCAUG [G50C U134A] | -3.17 |
| GGAUCUUCUCGAUCUAACAAAAAAGACAAAUCUGCCACAAAGCUUGAGACCAUCUUCGGAUGCAGAGGCGGCAGCCUUCGGUGGCUCGAUAGCGCCAACGUUCUCAACUAGGACACGCAAAACGCGUGCUCCGUUGAAUGGAGUUUAUCAUG [G50C G86U U111G] | ≤ -4.2 |
| GGAUCUUCUCGAUCUAACAAAAAAGACAAAUCUGCCACAAAGCUUGAGACCAUCGUCGGAUGCAGAAGCGGCAGACUUCGGUGGCGUGAUAGCGCCAACGUUCUCAACUAUGACACGCAAAACGCGUGCUCCGGUGGAUGGAGUUUAUCAUG [G50C U55G G67A C75A C87U U134G A137G] | ≤ -4.2 |
| GGAUCUUCUCGAUCUAACAAAAAAGACAAAUCUGCCACAAAGCUUGAGACCAUCUUCGGAUGCAGAGGCGGCAGCCUUCGGUGGCACGAUAGCGCCAACGUUCUCAACUAUGACACGCAAAACGCGUGCUCCGUUGAAUGGAGUUUAUCAUG [G50C G86A] | ≤ -4.2 |
| GGAUCUUCUCGAUCUAACAAAAAAGACAAAUCUGCCACAAAGCUUGAGACCAUCUUCGGAUGCAGAGGCGGCAGCCUUCGGUGACGCGAUAGCGCCAACGUUCUCAACUAUGACACGCAAAACGCGUGCUCCGUUGAAUGGAGUUUAUCAUG [G50C G84A] | -3.25 |
| GGAUCUUCUCGAUCUAACAAAAAAGACAAAUCUGCCACAAAGCUUGAGAUCCUCUUCGGAUGCAGAGGCGGCAGCCUUCGGUGGCGCGAUAGCGCCAACGUUCUCAGCUAUGACACGCAAAACGCGUGCUCCGUUGAAUGGAGUUUAUCAUG [G50U A52C A107G] | ≤ -4.2 |
| GGAUCUUCUCGAUCUAACAAAAAAGACAAAUCUGCCACAAAGCUUGAGACCAUCUUCGGAUGCAGAGGCGGCAGCCUUCGGUGGCGCGAUAGCACCAACGUUCUCAACUAUGACACGCAAAACGCGCGCUCCUUUGACUGGAGUUUAUCAUG [G50C G94A U127C G133U A138C] | ≤ -4.2 |
| GGAUCUUCUCGAUCUAACAAAAAAGACAAAUCUGCCACAAAGCUUGAGAUCAUCUUCGGUUGCAGAGGCGGCAGCAUUCUGUGGCGCGAUAGCGCCAACGGUCUCAUCUAUGACACGCAAAACGCGUGCUCCGUUGAAUGGAGUUUAUCAUG [G50U A60U C76A G80U U101G A107U] | ≤ -4.2 |
| GGAUCUUCUCGAUCUAACAAAAAAGACAAAUCUGCCACAAAGCUUGAGAUCAUCUUCGGUUGCAGAGGCGGCAGCCUUCGGUGGCGUGAUAGCACCAACGUUCUCAACUAUGACACGCAAAACGCGUGCUCCGUUGAAUGGAGUUAAUCAUG [G50U A60U C87U G94A U146A] | ≤ -4.2 |
| GGAUCUUCUCGAUCUAACAAAAAAGACAAAUCUGCCACAAAGCUUGAGACCAUCUUCGGAUGCAGAGGCGGCAGCCUUCGGUGGCGCGAAAGCGCCAACGUUCUCAACUAUGACACGCAAAACGCGUGCUCCGUUGAAUGGAGUUUAUCAUG [G50C U90A] | ≤ -4.2 |
| GGAUCUUCUCGAUCUAACAAAAAAGACAAAUCUGCCACAAAGCUUGAGACCAUCUACGCAUGCAGAGGCGGCAGCCUUCGGUGGCGCGAUAGCGCCAACGUUCUCAACUAUGACACGCAAAACGCGUGCUCCGUUGAAUGGAGUUUAUCAUG [G50C U56A G59C] | -3.03 |
| GGAUCUUCUCGAUCUAACAAAAAAGACAAAUCUGCCACAAAGCUUGAGACCAUCUUCGGAUGCAGAGGCGGCAGCCUUCCGUGGCGCGAUAGAGCCAUCGUUCUCAACUAUGACACGCAAAACGCGUGCUCCGUUGAAUGGAGUUUAUCAUG [G50C G80C C93A A98U] | ≤ -4.2 |
| GGAUCUUCUCGAUCUAACAAAAAAGACAAAUCUGCCACAAAGCUUGAGAUCAUCUUCGGAUGCAGAGGCGGCUGCCUUCGGUGACGCGAUAGCGCCAACGUUCUCAACGAUGACACGCAAAACGCGUGCUCCGUUGAAUGGAGUUUAUCAUG [G50U A73U G84A U109G] | ≤ -4.2 |
| GGAUCUUCUCGAUCUAACAAAAAAGACAAAUCUGCCACAAAGCUUGAGACCAUCUUCGGAUGCAGAGGCGGCAGCCUUCGGUAGCGCGAUAGCGCCAACGUUCUCAACUAUGACACGCAAAACGCGUGCUCCGUUGAAUGGAGUUUAUCAUG [G50C G83A] | -3.65 |
| GGAUCUUCUCGAUCUAACAAAAAAGACAAAUCUGCCACAAAGCUUGAGACCAUCUUCGGAUGCAGAGGCGGCAGCCUUCGGUGGCGCGAUAGCGCCAACGUUCUCAACGAUGGCACGCACAACGCGUGCGCCGUUGAAUGGAGUUUAUCAUG [G50C U109G A113G A120C U130G] | ≤ -4.2 |
| GGAUCUUCUCGAUCUAACAAAAAAGACAAAUCUGCCACAAAGCUUGAGACCAUCUUCGGAUGCAGAGGCGGCAGCCUUCAGUGGUGUGAUAGCGCCAACGUUCUCAAUUAUGACACGCAAAACGCGUGCUCCGUUGAAUGGAGUUUAUCAUG [G50C G80A C85U C87U C108U] | ≤ -4.2 |
| GGAUCUUCUCGAUCUAACAAAAAAGACAAAUCUGCCACAAAGCUUGAGACCAUCUUCGGAUGCAGAGGCGGCAGCCUUCGGUCGCGCUAUAGCGCCAACGUUCUCAACUAUGACACGCAAAACGCGUGCUCCGUUGAAUGGAGUUAAUCAUG [G50C G83C G88U U146A] | ≤ -4.2 |
| GGAUCUUCUCGAUCUAACAAAAAAGACAAAUCUGCCACAAAGCUUGAGACCAUCUUCGGAUGCAGAGGCGGCACCCUUCGGUGGCGCGAUAGCGCCAACGUUCUCAACUAUGACACGCAGAACUCAUGCUCCGUUGAAUGGAGUUUAUCAUG [G50C G74C A120G G124U G126A] | ≤ -4.2 |
